# Laboratory results taken from publication PMC4678825.
# Target: Qβ replicase core complex (β-subunit, EF-Tu and EF-Ts), wild type (E. coli | bacteriophage Qβ)
# Assay: SEC-MALS
substance,measurement,value
"Qβ replicase core complex (β-subunit, EF-Tu and EF-Ts), wild type",stoichiometry N,2
